The results in this text go back to patent US20240150440A1 (LUMEN BIOSCIENCE, published 2024).

The target of test [1] is T1, SARS-CoV-2 spike protein on pseudotyped lentivirus (Wuhan Reference Pseudovirus) (SARS-CoV-2, UniProt P0DTC2 14-1273). The test can be described thus: cell-based or functional assay.
The target of test [2] is T2, SARS-CoV-2 Alpha Variant RBD (SARS-CoV-2 Alpha variant).
T2 construct: domain: RBD; coated on ELISA plates
The test is described as follows: ELISA, RBD coated.

The target in test [3] is T3, SARS-CoV-2 Gamma Variant RBD (SARS-CoV-2 Gamma variant).
T3 construct: domain: RBD; coated on ELISA plates
The test can be described thus: ELISA, RBD coated. In general terms: An ELISA detects its analyte on a solid surface through an enzyme-linked reagent.

In test [4] the target is T4, SARS-CoV-2 Beta Variant RBD (SARS-CoV-2 Beta variant).
T4 construct: domain: RBD; coated on ELISA plates
The test can be described thus: ELISA, RBD coated.

Test [5] addresses T5, SARS-CoV-2 Delta Variant RBD (SARS-CoV-2 Delta variant).
T5 construct: domain: RBD; coated on ELISA plates
The test is described as follows: ELISA, RBD coated.

Test [6] has as its target T1, SARS-CoV-2 spike protein on pseudotyped …. The test is described as follows: cell-based or functional assay. The source holds these as a separate data set.

B1: PP901 MBP-5HVZ-R1e-B2-H6 (VHH)
VHH: QVQLVESGGGLVQPGGSLRLSCAASGQITAENYMHWYRQAPGKQREWVAAITTGGSTLYADSVKGRFTISRDNAKNTVYLQMNSLKPEDTAVYYCNADRSYFPDYWGQGTQVTVSS
notes: Form: Dimer
Consider B1, for which the “infectivity % under 10 ug/mL VHH treatment” value (from here on “infectivity %”) in test [1] was determined as 72.1%.

B2: PP902 MBP-5HVZ-R1e-D4-H6 (VHH)
VHH: QVQLVESGGGLVQPGGSLRLSCAASGSIREINAMHWVRQAPGKGRELVASIDSGSLDYYADSVKGRFTISRDNAKNTVYLQMNSLKPEDTAVYYCAASRSGDYRYWGQGTQVTVSS
notes: Form: Dimer
In general, EC50 refers to the concentration that produces a half-maximal response. Low readings indicate a more potent agent, high ones a less potent agent. Take B2: the values for the EC50 in test [2] and in test [3] were 123 nM and 451 nM, respectively. In addition, the “infectivity %” value in test [1] came to 72.4%.

B3: PP909 MBP-5HVZ-S2b-A7-H6 (VHH)
VHH: QVQLVESGGGLVQPGGSLRLSCAASGSSDSWNALHWFRQAPGKEREFVAGISSAGSGYYADSVKGRFTISRDNAKNTVYLQMNSLKPEDTAVYYCNGYEHTTGYDYWGQGTQVTVSS
notes: Form: Dimer
Turning to B3, the EC50 is 0.44 nM in test [2], 8.1 nM in test [4], 5.37 nM in test [3] and 81.4 nM in test [5].

B4: PP1098 MBP-5HVZ-PAPA-RN-9-H6 (VHH)
VHH: QVQLVESGGGLVQPGGSLRLSCAASGLRFAMTEMAWFRQAPGKQREFVALITEGGSGSYGDSVKGRFTISRDNAKNTVYLQMNSLKPEDTAVYYCAALHYTEGANTESATTFDYWGQGTQVTVSS
Regarding B4, the EC50 in test [2] was found to be 0.97 nM; in test [4], 24.8 nM; in test [3] it was 11.2 nM. For the same molecule, the “infectivity %” value in test [1] stood at 58.3%.

B5: PP910 MBP-5HVZ-S2b-C10-H6 (VHH)
VHH: QVQLVESGGGLVQPGGSLRLSCAASGSAFSLNYMAWFRQAPGKQREGVAIIGSGGSSDYADSVKGRFTISRDNAKNTVYLQMNSLKPEDTAVYYCAAQPNGSPDDFDYWGQGTQVTVSS
notes: Form: Dimer
Take B5: the “infectivity %” value in test [1] was found to be 65.1%.

B6: PP905 MBP-5HVZ-S1a-C4-H6 (VHH)
VHH: QVQLVESGGGLVQPGGSLRLSCAASGSRDSINTAHWYRQAPGKAREWVASLDNSTTGSYADSVKGRFTISRDNAKNTVYLQMNSLKPEDTAVYYCAAVTGTPGGLGFYDYWGQGTQVTVSS
notes: Form: Dimer
For the molecule B6, the EC50 in test [2] is 447 nM. In addition, the “infectivity %” value in test [1] was 75.7%.

B7: PP788 (VHH, not shown: large carriers; small tags and cut ends)
VHH: QVQLVESGGGLVQPGGSLRLSCAASGSIESINAIHWFRQAPGKAREEVAAITENDVDYYADSVKGRFTISRDNAKNTVYLQMNSLKPEDTAVYYCASLSSGYQYVGFRYWGQGTQVTVSS
Take B7: the EC50 in test [2] is 5.88 nM; in test [4], 27.6 nM; in test [3], 16.8 nM.

B8: PP904 MBP-5HVZ-R5b-C5-H6 (VHH)
VHH: QVQLVESGGGLVQPGGSLRLSCAASGSPFKTQTVHWFRQAPGKGREWVASITSGSGTQYMDSVKGRFTISRDNAKNTVYLQMNSLKPEDTAVYYCAAANDGYGVDWGQGTQVTVSS
notes: Form: Dimer
For the molecule B8, the EC50 in test [2] stood at 13 nM; in test [4], 139 nM; in test [3], 34.6 nM.

B9: PP1176 MBP-5HVZ-PAPA-R2a-F3-H6 (VHH)
VHH: QVQLVESGGGLVQPGGSLRLSCAASGSITSINWMHWFRQAPGKDREGVASISQTGRGSYADSVKGRFTISRDNAKNTVYLQMNSLKPEDTAVYYCAAASRTGTPYNYWGQGTQVTVSS
notes: Form: Dimer
For B9, the EC50 amounted to 0.27 nM in test [2] and 2.67 nM in test [5]. Moreover, in test [1], the “infectivity %” value came to 58.4%.

B10: PP1108 MBP-5HVZ-PAPA-RN-23-H6 (VHH)
VHH: QVQLVESGGGLVQPGGSLRLSCAASGGEKSISAAHWYRQAPGKEREFVAAITAASTTSYADSVKGRFTISRDNAKNTVYLQMNSLKPEDTAVYYCTAVLYDSYDYWGQGTQVTVSS
notes: Form: Dimer
Consider B10, for which the EC50 was found to be 1.89 nM in test [2], 121 nM in test [4] and 57.1 nM in test [3]. The “infectivity %” value in test [1] came out at 93.1%.

B11: PP914 MBP-5HVZ-S3a-H1-H6 (VHH)
VHH: QVQLVESGGGLVQPGGSLRLSCAASGGIYSPYSMHWFRQAPGKAREWVAGIVGGGGTTYSDSVKGRFTISRDNAKNTVYLQMNSLKPEDTAVYYCNANYQEYDEYDYWGQGTQVTVSS
notes: Form: Dimer
For B11, the EC50 in test [2] was determined as 2.94 nM; in test [4], 19.4 nM; in test [3], 10.5 nM.

B12: PP1096 MBP-5HVZ-PAPA-RN-3-H6 (VHH)
VHH: QVQLVESGGGLVQPGGSLRLSCAASGFEFTYRAVHWFRQAPGKGREWVAGVVSGGSTYYADSVKGRFTISRDNAKNTVYLQMNSLKPEDTAVYYCNAGPQAEEDTYDYWGQGTQVTVSS
Consider B12, for which the EC50 in test [2] was determined as 1.92 nM; in test [4], 63.2 nM; in test [3], 28.4 nM. Further, in test [1], the “infectivity %” value turned out to be 86.5%.

B13: PP1160 MPB-scTRP-PAPA-R5a-C5-H6 (VHH)
VHH: QVQLVESGGGLVQPGGSLRLSCAASGDIFSINALHWFRQAPGKQREEVAAITSGGSTGYADSVKGRFTISRDNAKNTVYLQMNSLKPEDTAVYYCAAQQARGGLDSDYWGQGTQVTVSS
notes: Form: Trimer
On to B13, for which the “infectivity %” value in test [1] came to 4.22%. For the same molecule, the “Pseudovirus neutralization IC50” value in test [6] stood at 2.41 nM.

B14: PP911 MBP-5HVZ-S2b-F7-H6 (VHH)
VHH: QVQLVESGGGLVQPGGSLRLSCAASGSTLSNNAMHWFRQAPGKAREFVAAIGSSDSTDYKDSVKGRFTISRDNAKNTVYLQMNSLKPEDTAVYYCTALLDSGPGEYNYWGQGTQVTVSS
notes: Form: Dimer
With B14, the EC50 is 2.19 nM in test [2], 545 nM in test [4] and 317 nM in test [3]. In addition, in test [1], the “infectivity %” value stood at 74.9%.

B15: PP928 MBP-5HVZ-R1i-E7-H6 (VHH)
VHH: QVQLVESGGGLVQPGGSLRLSCAASGTEYDISAAHWYRQAPGKQREWVAGVTSDNSTFYADSVKGRFTISRDNAKNTVYLQMNSLKPEDTAVYYCTATVKTSQYRYWGQGTQVTVSS
Regarding B15, in test [1], the “infectivity %” value was 78.5%.

B16: PP1115 MBP-5HVZ-PAPA-RN-31-H6 (VHH)
VHH: QVQLVESGGGLVQPGGSLRLSCAASGSTGSDYAMHWFRQAPGKDREWVAGISSYGSDSYGDSVKGRFTISRDNAKNTVYLQMNSLKPEDTAVYYCAALQASAGAGYYYDYWGQGTQVTVSS
notes: Form: Dimer
Regarding B16, the half-maximal effective concentration (EC50) was determined as 6.74 nM in test [2], 857 nM in test [4] and 162 nM in test [3]. For the same molecule, in test [1], the “infectivity %” value was 86.9%.

B17: PP922 MBP-R5a-F5-H6 (VHH)
VHH: QVQLVESGGGLVQPGGSLRLSCAASGYHASILAMHWVRQAPGKEREWVASMTWSDMTQYSDSVKGRFTISRDNAKNTVYLQMNSLKPEDTAVYYCAATYVTRDRPWTHWGQGTQVTVSS
notes: Form: Monomer
On to B17, for which, in test [1], the “infectivity %” value stood at 67.7%.

B18: PP1099 MBP-5HVZ-PAPA-RN-12-H6 (VHH)
VHH: QVQLVESGGGLVQPGGSLRLSCAASGSSFEGNAVHWFRQAPGKNREFVATITTSTSYYYADSVKGRFTISRDNAKNTVYLQMNSLKPEDTAVYYCAARLKDRGPQSEYDYWGQGTQVTVSS
notes: Form: Dimer
Turning to B18, the EC50 in test [2] turned out to be 4.95 nM; in test [4] it was 194 nM; in test [3], 160 nM. For the same molecule, the “infectivity %” value in test [1] was found to be 70.6%.

B19: PP916 MBP-5HVZ-S3b-A8-H6 (VHH)
VHH: QVQLVESGGGLVQPGGSLRLSCAASGSIISRVKVHWFRQAPGKSREWVAGIDSGTASYYSDSVKGRFTISRDNAKNTVYLQMNSLKPEDTAVYYCAAENRGYGVDWGQGTQVTVSS
notes: Form: Dimer
Consider B19, for which the EC50 in test [2] is 2.04 nM; in test [4], 66.3 nM; in test [3], 42.9 nM.

B20: PP927 MBP-5HVZ-R1i-C8-H6 (VHH)
VHH: QVQLVESGGGLVQPGGSLRLSCAASGRQFGAWRMHWYRQAPGKQREWVAGITSGTSGNYADSVKGRFTISRDNAKNTVYLQMNSLKPEDTAVYYCAATSHTTYHAEYWGQGTQVTVSS
notes: Form: Dimer
For the molecule B20, the values for the EC50 in test [2] and in test [5] were 2.22 nM and 94.2 nM, respectively. The “infectivity %” value in test [1] was 45.4%.

B21: PP907 MBP-5HVZ-S1b-E11-H6 (VHH)
VHH: QVQLVESGGGLVQPGGSLRLSCAASGSYASIASMHWFRQAPGKEREFVAGVTSGGSTNYGDSVKGRFTISRDNAKNTVYLQMNSLKPEDTAVYYCNALAGANYESQWEEYNYWGQGTQVTVSS
notes: Form: Dimer
As for B21, the 50% effective concentration (EC50) in test [2] stood at 3.7 nM; in test [4] it was 263 nM; in test [3], 120 nM. The “infectivity %” value in test [1] was determined as 76.3%.

B22: PP1114 MBP-5HVZ-PAPA-RN-30-H6 (VHH)
VHH: QVQLVESGGGLVQPGGSLRLSCAASGIPASYLNMHWFRQAPGKQREWVAGAGGTNSNYYQDSVKGRFTISRDNAKNTVYLQMNSLKPEDTAVYYCAALDGAESYDYVYPVWGQGTQVTVSS
notes: Form: Dimer
In the case of B22, the results for the EC50 in test [2], in test [4] and in test [3] were 1.64 nM, 18.9 nM and 6.12 nM, respectively. The “infectivity %” value in test [1] amounted to 76.3%.

B23: PP913 MBP-5HVZ-S3a-C5-H6 (VHH)
VHH: QVQLVESGGGLVQPGGSLRLSCAASGSIKNTNAMHWFRQAPGKDREWVAGITSGGNSNYGDSVKGRFTISRDNAKNTVYLQMNSLKPEDTAVYYCAAFGYRYDQDYTYDYWGQGTQVTVSS
notes: Form: Dimer
Regarding B23, the EC50 in test [2] was 1.33 nM; in test [4] it was 114 nM; in test [3], 61.1 nM.

B24: PP915 MBP-5HVZ-S3b-A7-H6 (VHH)
VHH: QVQLVESGGGLVQPGGSLRLSCAASGSIASINAIHWVRQAPGKQREEVAAITSGGSTGYADSVKGRFTISRDNAKNTVYLQMNSLKPEDTAVYYCAAQPGQSYAVWGQGTQVTVSS
notes: Form: Dimer
Regarding B24, the EC50 in test [2] was 0.52 nM; in test [5], 37.8 nM. The “infectivity %” value in test [1] came out at 90.5%.
